Variants at the floor of the assay were thinned out.
Assays:
biotinyl-Leu-oxazolone = experiment: self-aminoacylation, catalytic enhancement (BLO) (fold over background); higher = more active; k-Seq, kA / k0A0; sequences stand for … in GGGAAUGGAUCCACAUCUACGAAUUC…UUCACUGCAGACUUGACGAAGCUG
How it was run: (§1)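 Mutagenized RNA pools (0.43 μM; 21-nt variable region) were treated with 2–1250 μM of each biotinyl-aminoacyl-oxazolone. Conditions were 50 μL HEPES/NaCl/KCl/MgCl2/CaCl2 buffer, 5% acetonitrile, pH 6.9–7.0, room temperature, 90 minutes. Catalytic enhancement, the median kA relative to the uncatalyzed rate, was derived from streptavidin capture, qPCR and Illumina sequencing.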

biotinyl-Trp-oxazolone = experiment: self-aminoacylation, catalytic enhancement (BWO) (fold over background); higher = more active; k-Seq, kA / k0A0; sequences stand for … in GGGAAUGGAUCCACAUCUACGAAUUC…UUCACUGCAGACUUGACGAAGCUG
How it was run: as §1

biotinyl-Phe-oxazolone = experiment: self-aminoacylation, catalytic enhancement (BFO) (fold over background); higher = more active; k-Seq, kA / k0A0; sequences stand for … in GGGAAUGGAUCCACAUCUACGAAUUC…UUCACUGCAGACUUGACGAAGCUG
How it was run: as §1

biotinyl-Met-oxazolone = experiment: self-aminoacylation, catalytic enhancement (BMO) (fold over background); higher = more active; k-Seq, kA / k0A0; sequences stand for … in GGGAAUGGAUCCACAUCUACGAAUUC…UUCACUGCAGACUUGACGAAGCUG
How it was run: as §1

biotinyl-Val-oxazolone = experiment: self-aminoacylation, catalytic enhancement (BVO) (fold over background); higher = more active; k-Seq, kA / k0A0; sequences stand for … in GGGAAUGGAUCCACAUCUACGAAUUC…UUCACUGCAGACUUGACGAAGCUG
How it was run: as §1

biotinyl-Ile-oxazolone = experiment: self-aminoacylation, catalytic enhancement (BIO) (fold over background); higher = more active; k-Seq, kA / k0A0; sequences stand for … in GGGAAUGGAUCCACAUCUACGAAUUC…UUCACUGCAGACUUGACGAAGCUG
How it was run: as §1

Sequence | self-aminoacylation (biotinyl-Leu-oxazolone) | self-aminoacylation (biotinyl-Trp-oxazolone) | self-aminoacylation (biotinyl-Phe-oxazolone) | self-aminoacylation (biotinyl-Met-oxazolone) | self-aminoacylation (biotinyl-Val-oxazolone) | self-aminoacylation (biotinyl-Ile-oxazolone)
CUAAUACAAACAAUCGGUCUG [Fam1A.1 aminoacylation ribozyme variant] | 0.477 | 0.678 | 0.757 | 0.674 | 0.682 | 0.676
CUAAUGCAAACAAUCGGUCUG [Fam1A.1 aminoacylation ribozyme variant] | 0.55 | 0.581 | 0.853 | 0.631 | 0.577 | 0.612
CUAAUUCAAACAAUCGGGCUG [Fam1A.1 aminoacylation ribozyme variant] | 1.02 | 1.14 | 1.49 | 0.87 | 0.852 | 0.805
CUAAUUCAAACAGUCGGUCUG [Fam1A.1 aminoacylation ribozyme variant] | 0.915 | 0.523 | 0.62 | 0.731 | 0.853 | 0.839
CUAAUUCAACCAAUCGGUCUG [Fam1A.1 aminoacylation ribozyme variant] | 0.676 | 1.19 | 2.11 | 0.63 | 0.741 | 0.66
CUAAUUCAAUCAAUCGGUCUG [Fam1A.1 aminoacylation ribozyme variant] | 0.735 | 2.7 | 4.62 | 0.742 | 0.72 | 0.805
CUACAACAAACAAUCGGUCUG [Fam1A.1 aminoacylation ribozyme variant] | 0.743 | 0.491 | 0.946 | 0.496 | 0.642 | 0.646
CUACAAUUCAAGCAAUCGGUC [Fam1B.1 aminoacylation ribozyme variant] | 0.75 | 1.61 | 2.71 | 0.819 | 0.779 | 0.902
CUACACUUAAAGCAAUCGGUC [Fam1B.1 aminoacylation ribozyme variant] | 0.696 | 0.459 | 0.694 | 0.713 | 0.738 | 0.786
CUACACUUCAAGCAAUCGGCC [Fam1B.1 aminoacylation ribozyme variant] | 2.41 | 5.03 | 6.22 | 1.69 | 1.75 | 1.82
CUACACUUCAAGCAAUCGGUG [Fam1B.1 aminoacylation ribozyme variant] | 4.94 | 4.25 | 5.79 | 3.49 | 2.61 | 2.71
CUACACUUCAAGCACUCGGUC [Fam1B.1 aminoacylation ribozyme variant] | 0.757 | 0.614 | 0.867 | 0.786 | 0.945 | 0.886
CUACACUUCAAGCAGUCGGUC [Fam1B.1 aminoacylation ribozyme variant] | 0.741 | 0.628 | 0.895 | 0.739 | 0.758 | 0.775
CUACACUUCUAGCAAUCGGUC [Fam1B.1 aminoacylation ribozyme variant] | 0.669 | 0.565 | 0.693 | 0.572 | 0.635 | 0.706
CUACACUUUAAGCAAUCGGUC [Fam1B.1 aminoacylation ribozyme variant] | 0.585 | 0.565 | 0.979 | 0.63 | 0.74 | 0.768
CUACAUCAAACAAUCGGACUG [Fam1A.1 aminoacylation ribozyme variant] | 0.586 | 0.749 | 1.11 | 0.804 | 0.974 | 1.1
CUACAUCAAACAAUCGGCCUG [Fam1A.1 aminoacylation ribozyme variant] | 1.41 | 2.21 | 2.89 | 1.35 | 1.25 | 1.25
CUACAUCAAACAAUCGGUCCG [Fam1A.1 aminoacylation ribozyme variant] | 0.805 | 0.83 | 0.932 | 1.1 | 0.872 | 0.838
CUACAUCAAACCAUCGGUCUG [Fam1A.1 aminoacylation ribozyme variant] | 0.889 | 0.6 | 1.04 | 0.791 | 0.932 | 0.834
CUACAUCAAAGAAUCGGUCUG [Fam1A.1 aminoacylation ribozyme variant] | 0.592 | 0.67 | 0.801 | 0.817 | 0.68 | 0.78
CUACAUCAACCAAUCGGUCUG [Fam1A.1 aminoacylation ribozyme variant] | 0.554 | 0.796 | 1.44 | 0.748 | 0.781 | 0.643
CUACCUCAAACAAGCGGUCUG [Fam1A.1 aminoacylation ribozyme variant] | 0.828 | 1.11 | 5.07 | 1.57 | 0.97 | 1.25
CUACCUCAAACAAUCGGUCUA [Fam1A.1 aminoacylation ribozyme variant] | 0.89 | 0.934 | 1.45 | 1.16 | 0.885 | 1.01
CUACGCUUCAAGCAAUCGGUC [Fam1B.1 aminoacylation ribozyme variant] | 1.86 | 29.9 | 59.9 | 1.14 | 1.06 | 0.964
CUACGUCAAACAUUCGGUCUG [Fam1A.1 aminoacylation ribozyme variant] | 2.5 | 3.07 | 12.8 | 2.93 | 3.79 | 2.87
CUACUACAAACAAACGGUCUG [Fam1A.1 aminoacylation ribozyme variant] | 0.648 | 0.575 | 0.827 | 0.673 | 0.857 | 0.874

Sequence | self-aminoacylation (biotinyl-Leu-oxazolone) | self-aminoacylation (biotinyl-Trp-oxazolone) | self-aminoacylation (biotinyl-Phe-oxazolone) | self-aminoacylation (biotinyl-Met-oxazolone) | self-aminoacylation (biotinyl-Val-oxazolone) | self-aminoacylation (biotinyl-Ile-oxazolone)
CUACUACAAACAAUCGGUCUG [Fam1A.1 aminoacylation ribozyme variant] | 0.608 | 0.73 | 1.24 | 0.634 | 0.743 | 0.694
CUACUACAAACAAUCGGUCUU [Fam1A.1 aminoacylation ribozyme variant] | 0.515 | 0.511 | 0.658 | 0.565 | 0.675 | 0.533
CUACUACAAACAAUCGUUCUG [Fam1A.1 aminoacylation ribozyme variant] | 0.538 | 0.338 | 0.604 | 0.468 | 0.649 | 0.648
CUACUACAAACGAUCGGUCUG [Fam1A.1 aminoacylation ribozyme variant] | 0.656 | 0.607 | 0.437 | 0.915 | 0.797 | 0.821
CUACUACUAACAAUCGGUCUG [Fam1A.1 aminoacylation ribozyme variant] | 0.495 | 0.466 | 1 | 0.729 | 0.673 | 0.764
CUACUCAAAACAAUCGGUCUG [Fam1A.1 aminoacylation ribozyme variant] | 0.676 | 1.23 | 1.27 | 1.11 | 0.968 | 1.02
CUACUCCAAACAAUAGGUCUG [Fam1A.1 aminoacylation ribozyme variant] | 0.744 | 0.734 | 1.17 | 0.938 | 0.776 | 0.839
CUACUCCAAACAAUCGGCCUG [Fam1A.1 aminoacylation ribozyme variant] | 2.07 | 3.22 | 3.54 | 1.38 | 1.42 | 1.65
CUACUCCAAACAAUCGGUCUC [Fam1A.1 aminoacylation ribozyme variant] | 0.513 | 1.34 | 2.41 | 0.753 | 0.723 | 0.71
CUACUCCAAACAAUCGGUCUG [Fam1A.1 aminoacylation ribozyme variant] | 0.731 | 1.95 | 3.09 | 0.786 | 0.825 | 0.801
CUACUCCAAACAAUCGGUGUG [Fam1A.1 aminoacylation ribozyme variant] | 0.964 | 0.752 | 1.03 | 0.945 | 0.879 | 0.733
CUACUCCAAACAAUCUGUCUG [Fam1A.1 aminoacylation ribozyme variant] | 0.716 | 0.506 | 0.973 | 0.578 | 0.766 | 0.799
CUACUCCAACCAAUCGGUCUG [Fam1A.1 aminoacylation ribozyme variant] | 0.855 | 0.879 | 0.726 | 0.74 | 0.706 | 0.623
CUACUCCACACAAUCGGUCUG [Fam1A.1 aminoacylation ribozyme variant] | 0.702 | 0.9 | 0.891 | 0.722 | 0.731 | 0.696
CUACUCGAAACAAUCGGUCUG [Fam1A.1 aminoacylation ribozyme variant] | 0.84 | 0.979 | 0.599 | 0.942 | 1.01 | 0.837
CUACUGCAAAAAAUCGGUCUG [Fam1A.1 aminoacylation ribozyme variant] | 0.638 | 0.892 | 0.868 | 0.686 | 0.703 | 0.788
CUACUGCAAACAAUCGAUCUG [Fam1A.1 aminoacylation ribozyme variant] | 0.663 | 0.679 | 0.699 | 0.937 | 0.732 | 0.705
CUACUGCAAACAAUCGGGCUG [Fam1A.1 aminoacylation ribozyme variant] | 1.61 | 0.887 | 8.54 | 1.69 | 1.98 | 1.74
CUACUGCAAACAAUCGGUCUG [Fam1A.1 aminoacylation ribozyme variant] | 0.776 | 0.77 | 1.08 | 0.769 | 0.844 | 0.804
CUACUGCAUACAAUCGGUCUG [Fam1A.1 aminoacylation ribozyme variant] | 0.577 | 0.659 | 0.959 | 0.612 | 0.643 | 0.677
CUACUUAAAAAAAUCGGUCUG [Fam1A.1 aminoacylation ribozyme variant] | 0.768 | 0.49 | 0.661 | 0.806 | 0.804 | 0.88
CUACUUAAAACAAACGGUCUG [Fam1A.1 aminoacylation ribozyme variant] | 0.933 | 0.67 | 0.836 | 0.871 | 0.895 | 0.911
CUACUUAAAACAAGCGGUCUG [Fam1A.1 aminoacylation ribozyme variant] | 0.836 | 0.982 | 0.744 | 0.926 | 0.902 | 1.04
CUACUUAAAACAAUCGGUCCG [Fam1A.1 aminoacylation ribozyme variant] | 0.908 | 0.709 | 0.603 | 1.12 | 0.835 | 0.878
CUACUUAAAACAAUCGGUCUA [Fam1A.1 aminoacylation ribozyme variant] | 0.602 | 0.711 | 0.81 | 0.729 | 0.894 | 0.766

— the supplement of paper PMC9233669
